Source: patent publication US7732133B2, “Screening methods for biologically active ligands” (Chugai Seiyaku Kabushiki Kaisha, priority 2000, dated 2010)

Target: T1, chimeric IL-10 receptor (human IL-10Rα and IL-10Rβ / mouse G-CSF receptor) in Ba/F3 cell line 10G (Homo sapiens, UniProt Q08334+Q13651)
T1 construct: from the 1st to the 235th amino acid residue; from the 1st to the 220th amino acid residues; expressed in transfected cells; host or cells: mouse Ba/F3 cells co-transfected with pCV-cIL10Rα and pCV-cIL10Rβ, clone 10G#10 = 10G
T1 sequence (Q13651 22-235): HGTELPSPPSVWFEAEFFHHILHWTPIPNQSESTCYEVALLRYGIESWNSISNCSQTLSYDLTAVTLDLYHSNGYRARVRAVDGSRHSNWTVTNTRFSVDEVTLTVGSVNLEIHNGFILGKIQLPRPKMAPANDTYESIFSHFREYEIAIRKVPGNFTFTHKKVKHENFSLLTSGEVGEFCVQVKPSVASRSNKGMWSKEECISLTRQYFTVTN
T1 sequence (Q08334 20-220): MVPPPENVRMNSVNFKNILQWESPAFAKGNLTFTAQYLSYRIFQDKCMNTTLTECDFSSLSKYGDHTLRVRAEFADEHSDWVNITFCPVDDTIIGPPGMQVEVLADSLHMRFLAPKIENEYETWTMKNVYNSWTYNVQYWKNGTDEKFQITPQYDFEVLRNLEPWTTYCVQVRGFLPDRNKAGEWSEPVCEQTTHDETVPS
T1 sequence (P40223 627-837 partner limits assumed): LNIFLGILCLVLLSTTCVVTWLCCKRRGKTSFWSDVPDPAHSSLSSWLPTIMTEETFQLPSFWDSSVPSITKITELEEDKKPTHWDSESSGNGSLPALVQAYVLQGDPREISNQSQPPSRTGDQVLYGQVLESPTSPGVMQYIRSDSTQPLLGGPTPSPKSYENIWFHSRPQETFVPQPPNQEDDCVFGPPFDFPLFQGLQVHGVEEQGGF
Test: Growth response of chimeric IL-10 receptor-expressing Ba/F3 cell line 10G (WST-8)
Assay type: cell-based
Details: 72 hours culture, WST-8 absorbance
From the text: Chimeric receptor cDNAs were constructed by linking cDNA fragments encoding the α chain (IL-10Rα) (from the 1st to the 235th amino acid residue; Liu, Y. et al. (1994) J. Immunol. 152, 1821-1829) and the hIL-10R subunit (CRFB4; IL-10Rβ) extracellular domain (from the 1st to the 220th amino acid residues; Lutfalla, G. et al. (1993) Genomics 16, 366-373) of human IL-10 receptor with the transmembrane and intracellular domains (from the 602nd to the 813th amino acid residues; Fukunaga, R. et al. (1990) Cell 61, 341-350) of mouse G-CSF receptor, respectively. […]
The cells were washed twice with Media A, and were suspended in Media A to give a cell density of 5×10^4 cells/mL. […] After the culture, 10 μL/well WST-8 reagent (Cell Count Reagent SF; Nacalai Tesque) was added, and pre-reaction absorbance at a measurement wavelength of 450 nm and a control wavelength of 655 nm was measured using microplate reader (Model 3550, Bio Rad). The plate was incubated for two hours in a CO2 incubator (CO2 concentration, 5%), and post-reaction absorbance was measured as above. […]

Question: With “human IL-10: human interleukin 10 (Genzyme)” as the substance, how does the “concentration at which an evident growth reaction was observed” value read?
Answer: The value was no less than 0.5 ng/mL.
